Experimental data: patent publication US20250002610A1 (Genmab, published 2025)

Assays:
[1] = target: T1, rat FAPα on Expi293F cells (rat (Rattus norvegicus), UniProt P97321 1-761 (mouse entry)); test: flow cytometry on Expi293F cells transiently expressing rat FAPα, gMFI PE
T1 chain: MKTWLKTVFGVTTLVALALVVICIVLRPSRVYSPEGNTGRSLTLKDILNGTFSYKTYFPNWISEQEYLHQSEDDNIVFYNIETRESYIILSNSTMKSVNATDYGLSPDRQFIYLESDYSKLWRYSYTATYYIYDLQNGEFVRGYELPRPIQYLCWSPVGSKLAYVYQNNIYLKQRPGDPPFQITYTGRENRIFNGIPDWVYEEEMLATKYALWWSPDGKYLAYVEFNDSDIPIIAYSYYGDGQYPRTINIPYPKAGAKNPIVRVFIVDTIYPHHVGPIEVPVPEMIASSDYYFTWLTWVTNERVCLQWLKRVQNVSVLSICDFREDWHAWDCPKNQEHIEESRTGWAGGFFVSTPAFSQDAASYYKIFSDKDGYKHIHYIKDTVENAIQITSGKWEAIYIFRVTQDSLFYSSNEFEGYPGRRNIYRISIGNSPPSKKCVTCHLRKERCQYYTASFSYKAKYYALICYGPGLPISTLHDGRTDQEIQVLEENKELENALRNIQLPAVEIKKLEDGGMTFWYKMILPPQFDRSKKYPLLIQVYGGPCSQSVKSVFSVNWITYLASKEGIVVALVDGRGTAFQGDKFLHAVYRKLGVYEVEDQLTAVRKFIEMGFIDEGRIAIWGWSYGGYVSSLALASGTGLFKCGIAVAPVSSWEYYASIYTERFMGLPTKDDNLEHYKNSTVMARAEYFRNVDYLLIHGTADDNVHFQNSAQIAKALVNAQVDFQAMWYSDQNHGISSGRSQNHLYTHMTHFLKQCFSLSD
Procedure: Binding of BisG1-FAPα-FERL/DR4-FERR, BisG1-FAPα-FEAL/b12-FEAR and IgG1-FAPα-FERL to FAPα of species commonly used for nonclinical toxicology studies was assessed by flow cytometry using Expi293F cells transiently expressing FAPα from different animal species. IgG1-b12 was included as negative control.
Expi293F cells expressing recombinant FAPα from various species (human, cynomolgus monkey, dog, pig, rat or mouse) were seeded (20,000 cells/well) in 96-Well round bottom plates (Greiner Bio-one, Cat #650101). Antibody dilutions were prepared using FACS buffer, consisting of PBS (Capricorn Scientific, Cat #PBS-10XA, diluted to 1×PBS in distilled water)+1% BSA (Roche, Cat #10735086001)+0.02% Sodium Azide (Bio-World, Cat #41920044-3). Plates were centrifuged, supernatant was removed, and cells were resuspended in 100 μL of antibody dilutions (concentration range 30-0.00017 μg/mL with three-fold serial dilutions using FACS buffer) of BisG1-FAPα-FERL/DR4-FERR, BisG1-FAPα-FEAL/b12-FEAR, IgG1-FAPα-FERL and IgG1-b12 and incubated for 30 min at 4° C. […] Antibody binding to viable cells (gMFI of PE on TO-PRO-3 negative cells) was analyzed by flow cytometry on a FACS Celesta and FACS_Diva software (first two experiments) or iQue® 3 and FlowJo software (last experiment). gMFI was determined and visualized using GraphPad Prism. Binding curves were analyzed using nonlinear regression analysis. […]

[2] = target: T2, human DR4 (Death Receptor 4), cell surface expressed on human tumor cell lines (human, UniProt O00220 24-468); test: flow cytometry, HCT-15 cells, average ± SEM; HCT-15 cells, average of n = 3
T2 construct: also called TNFRSF10A; TRAIL-R1
T2 sequence: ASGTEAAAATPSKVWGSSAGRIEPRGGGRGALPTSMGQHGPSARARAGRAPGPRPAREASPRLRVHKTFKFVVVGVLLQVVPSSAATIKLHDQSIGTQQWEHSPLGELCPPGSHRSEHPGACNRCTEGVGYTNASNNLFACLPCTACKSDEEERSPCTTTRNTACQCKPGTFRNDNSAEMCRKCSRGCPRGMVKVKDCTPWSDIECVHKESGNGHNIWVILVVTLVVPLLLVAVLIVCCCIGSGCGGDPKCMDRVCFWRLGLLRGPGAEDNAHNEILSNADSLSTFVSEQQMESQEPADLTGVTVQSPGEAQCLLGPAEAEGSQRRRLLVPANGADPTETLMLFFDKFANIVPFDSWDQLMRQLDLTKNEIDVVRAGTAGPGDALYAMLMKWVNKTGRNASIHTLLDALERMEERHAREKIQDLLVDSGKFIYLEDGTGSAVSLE

B1: IgG1-FAPα-FERL (antibody)
heavy: EVQLLESGGGLVQPGGSPRLSCEASGFTFSSYALSWVRQAPGKGLEWVSAISGSGGGRYYADSVKGRFTISRDNSKNTLFLQMNSLRAEDTAVYYCAKEGYSSSGTYWDHWGQGTLVTVSSASTKGPSVFPLAPSSKSTSGGTAALGCLVKDYFPEPVTVSWNSGALTSGVHTFPAVLQSSGLYSLSSVVTVPSSSLGTQTYICNVNHKPSNTKVDKRVEPKSCDKTHTCPPCPAPEFERGPSVFLFPPKPKDTLMISRTPEVTCVVVDVSHEDPEVKFNWYVDGVEVHNAKTKPREEQYNSTYRVVSVLTVLHQDWLNGKEYKCKVSNKALPAPIEKTISKAKGQPREPQVYTLPPSREEMTKNQVSLTCLVKGFYPSDIAVEWESNGQPENNYKTTPPVLDSDGSFLLYSKLTVDKSRWQQGNVFSCSVMHEALHNHYTQKSLSLSPG
light: AIQMTQSPSSVSASVGDRVTITCRASQGVSSWLAWYQQKPGRAPKLLIYVASTLQSGVPSRFSGSGSGTDFTLTINSLQPEDFATYYCQQANSFPPTFGQGTRLEMKRTVAAPSVFIFPPSDEQLKSGTASVVCLLNNFYPREAKVQWKVDNALQSGNSQESVTEQDSKDSTYSLSSTLTLSKADYEKHKVYACEVTHQGLSSPVTKSFNRGEC
notes: Bivalent monoclonal IgG1 kappa
[1]
  EC50 (read off the curve): ~0.2 µg/mL

B2: IgG1-DR4-FERR (antibody, V domains shown)
VH: QVQLQESGPGLVKPSGTLSLTCAVSGGSISSYSWWSWIRQPPGKGLEWIGELYHSGSTNYNPSLKSRVTISVDKSKNQFSLKLRSVTAADTAVYYCVRGVATIDYWGQGTLVTVSS
VL: QSALTQPPSASGSPGQSVTISCTGTSSDVGGYNFVSWYQQDPGKAPKLLIYEVTKRPSGVPDRFSGSKSGNTASLTVSGLQAEDEADYYCSSYAGSNNVMFGGGTKLTVLG
notes: Bivalent monoclonal IgG1 lambda
[2]
  EC50: 0.17 µg/mL
